These results are taken from US20260116987A1 (Gilead, published 2026).

Positions count from the first letter of the chain named.

T1: Human CCR4 expressed on CHO-S cells (human, UniProt P51679 1-360)
T1 construct: whole, on cells; also called CCR4-expressing CHO-S cells
T1 sequence (looked up): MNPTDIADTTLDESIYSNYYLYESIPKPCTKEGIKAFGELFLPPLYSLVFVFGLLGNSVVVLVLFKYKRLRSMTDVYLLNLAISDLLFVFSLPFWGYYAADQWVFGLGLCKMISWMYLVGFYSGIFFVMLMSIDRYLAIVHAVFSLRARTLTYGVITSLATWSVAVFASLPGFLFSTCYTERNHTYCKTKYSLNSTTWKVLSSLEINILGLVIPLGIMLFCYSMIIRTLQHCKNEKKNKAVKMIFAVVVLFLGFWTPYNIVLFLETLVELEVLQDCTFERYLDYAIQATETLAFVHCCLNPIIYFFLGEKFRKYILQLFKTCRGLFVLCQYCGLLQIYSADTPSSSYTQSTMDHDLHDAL

B1: 7B16.002 (CDR H3 alanine scan variant of 7-B16) (antibody, human IgG1, kappa, V domains shown)
VH: EVQLVESGGGLVQPKGSLKLSCAASGFTFNTYAMNWVRQAPGKGLEWVARIRSKSNNYATYYADSVKDRFTISRDDSQSMLYLQMNNLKTEDTAMYYCARGLLRYRFFDVWGAGTTVTVSS
VL: DIVMTQAEPSVPVTPGESISISCRSSKSLLHSNGNTYLYWFLQRPGQSPQLLIYRMSNLASGVPDRFSGSGSGTAFTLRISRVEAEDVGVYYCMQHLEYPFTFGGGTKLEIKR
B2: 7B16.004 (CDR H3 alanine scan variant of 7-B16) (antibody, human IgG1, kappa, V domains shown)
VH: B1 VH with A99V, G101A
VL: B1 VL
B3: 7B16.006 (CDR H3 alanine scan variant of 7-B16) (antibody, human IgG1, kappa, V domains shown)
VH: B1 VH with A99V, L103A
VL: B1 VL
B4: 7B16.009 (CDR H3 alanine scan variant of 7-B16) (antibody, human IgG1, kappa, V domains shown)
VH: B1 VH with A99V, R106A
VL: B1 VL
B5: 7B16.005 (CDR H3 alanine scan variant of 7-B16) (antibody, human IgG1, kappa, V domains shown)
VH: B1 VH with A99V, L102A
VL: B1 VL
B6: 7B16.008 (CDR H3 alanine scan variant of 7-B16) (antibody, human IgG1, kappa, V domains shown)
VH: B1 VH with A99V, Y105A
VL: B1 VL
B7: Humanized 7-B16.001 (antibody, human IgG1, kappa, V domains shown)
VH: EVQLVESGGGLVQPGGSLKLSCAASGFTFNTYAMNWVRQASGKGLEWVGRIRSKSNNYATYYADSVKDRFTISRDDSKNTAYLQMNSLKTEDTAVYYCVRGLLRYRFFDVWGQGTTVTVSS
VL: B1 VL with A7S, E8P, P9L, V11L, S18P, I19A, R44K, A75D, R79K, L109V
notes: Humanized
B8: Humanized 7-B16.033 (antibody, human IgG1, kappa, V domains shown)
VH: B7 VH with G16R, K19R, A23T, N30A, S41P, G49A, N79S, T80I, A81L
VL: B1 VL with A7S, E8P, P9L, V11L, S18P, I19A, R44K, A75D, R79K, L109V
notes: Humanized
B9: Humanized 1-K17.015 (antibody, human IgG1, kappa, V domains shown)
VH: EVQLVQSGAEVKKPGASVKVSCKASGYTFTSYNMHWVRQAPGQRLEWIGAIYPGQGDTSYNQKFKGRATLTADKSASTAYMELSSLRSEDTAVYYCARKGGTPFAYWGQGTLVTVSS
VL: DVVMTQSPLSLPVTLGQPASISCRSSQSLVHSNAQTYLYWYQQRPGQSPRLLIYKVSNRFSGVPDRFSGSGSGTDFTLKISRVEAEDVGVYFCSQSTHVPYTFGQGTKLEIKR
notes: Humanized with hotspot correction
B10: Humanized 1-K17.044 (antibody, human IgG1, kappa, V domains shown)
VH: B9 VH with R44G, Q55A, A76T
VL: B9 VL with Q35A
notes: as for B9

For the first experiment, the target named is T2, Human CCR8 (C-C chemokine receptor type 8) expressed on CHO-S cells (human, UniProt P51685 1-355). Description: cell-based or functional assay.
T2 sequence (P51685 whole entry): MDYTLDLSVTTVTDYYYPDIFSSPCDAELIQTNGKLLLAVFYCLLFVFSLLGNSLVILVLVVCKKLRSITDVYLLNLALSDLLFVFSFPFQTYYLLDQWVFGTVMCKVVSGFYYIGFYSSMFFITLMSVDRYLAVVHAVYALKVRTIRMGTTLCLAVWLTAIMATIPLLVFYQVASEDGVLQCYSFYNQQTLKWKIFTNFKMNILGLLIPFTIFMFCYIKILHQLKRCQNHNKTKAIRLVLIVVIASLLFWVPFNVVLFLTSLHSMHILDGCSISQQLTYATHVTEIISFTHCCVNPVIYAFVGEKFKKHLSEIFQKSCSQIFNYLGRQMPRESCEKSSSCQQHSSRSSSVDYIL
As to B1, the “ADCC (Fold Induction)” value worked out at 22.9 fold.
Still for that read-out and setting: the figure for B2 is 19.5 fold; for B3 it is 14.1 fold; for B4 it is 19.8 fold.
On the same count and under the same terms, the value for B5 was 20 fold.
Still for that read-out and setting: the value for B6 was 24.8 fold.

In another experiment the target is T1, Human CCR4 expressed on CHO-S cells. Description: flow cytometry.
With B7, the binding result was “no binding”.
Still for that read-out and setting: the value for B8 was “no binding”; that for B9 was “no binding”; that for B10 was “no binding”.

For a further experiment, the target named is T2, Human CCR8 (C-C chemokine receptor type …). Description: flow cytometry, human CCR8-overexpressing against parental CHO-S cells. How it is done:
The first category of variant (single substitution mutation in the CDR H3) included variants in which each amino acid residue of the heavy chain CDR 3 (i.e., , CDR H3) was iteratively substituted with an alanine residue.
CCR8 binding was determined using flow cytometry according to the same methods used in Example 4, Briefly, antibodies were screened for specific binding to human CCR8 by flow cytometry using human CCR8-overexpressing and parental CHO—S cell line. Antibodies specifically binding to human CCR8 were also tested for binding to CCR4 by flow cytometry.
For B1, the “Flow (fold over parent)” value turned out to be 8 fold.
For B2, the “Flow (fold over parent)” value worked out at 6 fold.
Same read-out and setting: the value for B3 was 8 fold; that for B4 was 10 fold.
Same read-out and setting: the figure for B5 is 9 fold.
For the molecule B6, the “Flow (fold over parent)” value came to 9 fold.

The target in the next experiment is CCR8-NT.MBP (CCR8 N-terminus peptide aa 1-35 fused with maltose binding protein). Description: ForteBio Octet, antibody at 10 µg/ml captured on AHC biosensors, 300 nM CCR8-NT.MBP as analyte. An excerpt: (amino acids 406-440 of SEQ ID NO: 128), Amino acids 1-364 of SEQ ID NO: 128 represent the maltose binding protein.
Take B1: the “Octet (nm shift)” value turned out to be 0.469 nm.
Still for that read-out and setting: the value for B2 was 0.221 nm.
Take B3: the “Octet (nm shift)” value is 0.22 nm.
Still for that read-out and setting: the value for B4 was 0.303 nm; that for B5 was 0.296 nm; that for B6 was 0.436 nm.

For the next experiment, the target named is T2, Human CCR8 (C-C chemokine receptor type …). Description: KinExA, on-cell affinity.
Take B7: the Kd was 0.0159 nM, the koff worked out at 7.93e-05 s⁻¹ and the kon worked out at 4.99e+06 M⁻¹ s⁻¹.
Taken in the same sequence, the figures for B8 were 0.0746 nM, 0.000391 s⁻¹ and 5.25e+06 M⁻¹ s⁻¹.
Taken in the same sequence, the figures for B9 were 0.0145 nM, 0.000142 s⁻¹ and 9.78e+06 M⁻¹ s⁻¹.
B10: the affinity, expressed as Kd, was 0.00805 nM; the off-rate constant (koff) came out at 6.67e-05 s⁻¹; the on-rate constant (kon) was found to be 8.29e+06 M⁻¹ s⁻¹.
